Experimental data: publication PMC9302814

target: SARS-CoV-2 Spike; experiment: SPR

In order of falling Kd:
1. S2P6  9.7 nM
2. CV3-25  2.5 nM
3. CC40.8  1.6 nM

In order of falling koff:
1. S2P6  0.0033 s⁻¹
2. CV3-25  0.00061 s⁻¹
3. CC40.8  0.00038 s⁻¹
